Patent US20160033500A1 (SYSMEX, published 2016)
Values belong to the molecule of their own block, whether it stands above or below them.

Legend:
human serum albumin [1] = biological target: T1, human serum albumin (human, UniProt P02768 25-609); experiment: reflection interference spectroscopy, HSA sensor chip, 1000 µM peptide
T1 construct: Adsorbed on an unmodified silicon nitride sensor chip (HSA sensor chip) from a 0.2 µM solution; also called HSA

human serum albumin [2] = biological target: T1, human serum albumin; experiment: coefficient b of the two-exponential dissociation fit (Equation I), HSA sensor chip, 1000 µM peptide
human serum albumin [3] = biological target: T1, human serum albumin; experiment: reflection interference spectroscopy, HSA sensor chip, 10 µM lysozyme
human serum albumin [4] = biological target: T1, human serum albumin; experiment: reflection interference spectroscopy, HSA sensor chip, 2 µM peptide
Experimental: Then, a running buffer (0.1 M sodium phosphate buffer (pH 6.9)) was injected into a flow path formed between the substrate and the flow cell at a flow rate of 100 μL/min for 30 minutes or more so as to equilibrate the surface of the substrate. […] In injecting the running buffer or the sample, a liquid feeding pump for high-performance liquid chromatograph [product name: Prominence UFLC, manufactured by Shimadzu Corporation] and an autosampler [product name: Chromaster, manufactured by Hitachi, Ltd.] were used. As a result, a solid phase carrier having HSA immobilized on the surface thereon (hereinafter also referred to as “HSA sensor chip”) was obtained. In injecting the HSA solution into the flow path, the wavelength variation Δλ of bottom wavelength of the spectral reflectivity curve of the reflected light when the flow path was irradiated with white light was measured with time, whereby a sensorgram showing the time-dependent change of the wavelength variation Δλ was obtained.

human serum albumin [5] = biological target: T1, human serum albumin; experiment: reflection interference spectroscopy, HSA sensor chip, 50 µM peptide
human serum albumin [6] = biological target: T1, human serum albumin; experiment: reflection interference spectroscopy, HSA sensor chip, 1 µM peptide
human serum albumin [7] = biological target: T1, human serum albumin; experiment: reflection interference spectroscopy, HSA sensor chip, 100 µM peptide
Experimental: (§1) The wavelength variation Δλ of the bottom wavelength of the spectral reflectivity curve of the reflected light (the layer thickness change amount Δλ) when the flow path was irradiated with white light was measured with time, whereby a sensorgram was obtained.

human serum albumin [8] = biological target: T1, human serum albumin; experiment: coefficient b of the two-exponential dissociation fit (Equation I), HSA sensor chip, 10 µM peptide
Experimental: as §1

human serum albumin [9] = biological target: T1, human serum albumin; experiment: reflection interference spectroscopy, HSA sensor chip, 10 µM peptide
Experimental: as §1

B1: Lysozyme (enzyme)
chain: KVYGRCELAAAMKRLGLDNFRGYSLGNWVCAAKFESNFNTHATNRNTDGSTDYGILQINSRWWCNDGRTPGSRNLCNIPCSALLSSDTIASVNCAKKIVSDGNGMNAWVAWRKRCKGTDVNAWTRGCRL
- koff (human serum albumin [3]): 0.0066 s⁻¹

B5: ELN 11mer (peptide)
peptide: GVPGLGVGAGV
- koff (human serum albumin [6]): 0.00016 s⁻¹

B6: Kininogen (peptide)
peptide: HNLGHGHKHERDQGHGHQR
notes: Named as the protein, but a 19-residue peptide was used
- koff (human serum albumin [7]): 0.00493 s⁻¹

B7: arginine decapeptide (peptide)
peptide: RRRRRRRRRR
notes: also called (Arg)10
- binding result (human serum albumin [4]): binds

B8: ACTH15 (peptide)
peptide: YSMEHFRWGKPVGKK
- b value (human serum albumin [8]): 0.029
- koff (human serum albumin [9]): 0.0115 s⁻¹
- maximum layer thickness change amount Δλ (human serum albumin [9]): 0.061 nm

B9: (His) 10 (peptide)
peptide: HHHHHHHHHH
- b value (human serum albumin [8]): 0.093
- koff (human serum albumin [9]): 0.00073 s⁻¹
- maximum layer thickness change amount Δλ (human serum albumin [9]): 0.086 nm

B11: histidine eicosa peptide (peptide)
peptide: HHHHHHHHHHHHHHHHHHHH
notes: also called (His)20
- binding result (human serum albumin [4]): binds

B12: (Lys) 10 (peptide)
peptide: KKKKKKKKKK
- koff (human serum albumin [7]): 0.0002 s⁻¹

Next, values leading:

- koff (human serum albumin [1]): 0.00257 s⁻¹
- maximum layer thickness change amount Δλ (human serum albumin [1]): 0.027 nm
- b value (human serum albumin [2]): 0.344
Molecule: (His) 3 (peptide)

- binding result (human serum albumin [4]): binds
B2: fibrinogen α (peptide)
peptide: DEAGSEADHEGTHSTKRGHAKSRPV
notes: Named as the protein, but a 25-residue peptide was used

- binding result (human serum albumin [4]): binds
B3: inter-α-trypsin inhibitor heavy chain 4 (peptide)
peptide: GESRNRNVHSGSTFFKYYLQGAKIPKPEASFS
notes: Named as the protein, but a 32-residue peptide was used; also called ITIH4

- koff (human serum albumin [5]): 0.0171 s⁻¹
B4: IS 13mer (peptide)
peptide: AWAVARLSQRFPK

- binding result (human serum albumin [4]): binds
B10: ACTH partial peptide at the 1-41 positions (peptide)
peptide: GPSYSMEHFRWGKPVGKKRRPVKVYPNGAEDESAEAFPLEF
notes: Synthetic peptide from Biologica Co, Ltd; also called ACTH41

- binding result (human serum albumin [4]): binds
B13: ACTH partial peptide at the 1-24 positions (peptide)
peptide: SYSMEHFRWGKPVGKKRRPVKVYP
notes: Synthetic peptide from Biologica Co, Ltd; also called ACTH24
